Reference: patent US20190070251A1

How the values were obtained:
[1] = target: GPR54 G-Protein coupled receptor (cloned human GPR54) (human) (UniProt Q969F8); test: cell-based or functional assay
[2] = target: human δ opioid receptor (human) (UniProt P41143); test: Kd of the radioligand, previously determined under these assay conditions; membranes of CHO-K1 cells with recombinant human δ opioid receptor (OGF series)
[3] = target: human δ opioid receptor (human) (UniProt P41143); test: Kd of the radioligand, previously determined under these assay conditions; membranes of CHO-K1 cells with recombinant human δ opioid receptor (biphalin series)

Sequence of human δ opioid receptor (human) (P41143 whole entry, stated change not applied): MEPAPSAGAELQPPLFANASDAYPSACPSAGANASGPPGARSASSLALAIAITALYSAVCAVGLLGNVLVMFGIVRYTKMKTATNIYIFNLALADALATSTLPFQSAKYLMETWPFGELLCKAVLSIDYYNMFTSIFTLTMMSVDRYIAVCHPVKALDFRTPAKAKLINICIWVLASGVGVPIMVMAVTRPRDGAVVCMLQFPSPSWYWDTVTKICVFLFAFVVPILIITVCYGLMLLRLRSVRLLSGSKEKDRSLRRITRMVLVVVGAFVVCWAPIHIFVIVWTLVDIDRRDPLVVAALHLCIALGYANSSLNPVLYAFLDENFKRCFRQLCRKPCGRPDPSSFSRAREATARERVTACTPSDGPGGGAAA

Kisspeptin-10 (peptide)
EC50 (nM) of agonist activation at GPR54 (FLIPR calcium flux) [1]: 10 nM | Fold change compared to metastin [1]: 1 fold

[3H] DPDPE (peptide)
Kd [2]: 3 nM | Kd [3]: 3.9 nM

mono-[mPEG-SBC-30K]-[Kisspeptin-10] (peptide)
EC50 (nM) of agonist activation at GPR54; time of release 2 h [1]: 200 nM
